Numbering of substitutions follows the chain as printed. In names and notes the source's numbering stands.
B1: dihydroorotase (DHO) domain of human CAD, wild type (domain or fragment, UniProt P27708 1456-1846, looked up)
chain: MTSQKLVRLPGLIDVHVHLREPGGTHKEDFASGTAAALAGGITMVCAMPNTRPPIIDAPALALAQKLAEAGARCDFALFLGASSENAGTLGTVAGSAAGLKLYLNETFSELRLDSVVQWMEHFETWPSHLPIVAHAEQQTVAAVLMVAQLTQRSVHICHVARKEEILLIKAAKARGLPVTCEVAPHHLFLSHDDLERLGPGKGEVRPELGSRQDVEALWENMAVIDCFASDHAPHTLEEKCGSRPPPGFPGLETMLPLLLTAVSEGRLSLDDLLQRLHHNPRRIFHLPPQEDTYVEVDLEHEWTIPSHMPFSKAHWTPFEGQKVKGTVRRVVLRGEVAYIDGQVLVPPGYGQDVRKWPQGAVPQLPPSAPATSEMTTTPERPRRGIPGLPD
modifications: carboxylated lysine (KCX) at K1556
B2: DHO domain of human CAD, variant R1475Q (domain or fragment, UniProt P27708 1456-1846, looked up)
chain: B1 chain with R20Q
B3: DHO domain of human CAD, variant K1556T (domain or fragment, UniProt P27708 1456-1846, looked up)
chain: B1 chain with K101T
B4: DHO domain of human CAD, variant R1722W (domain or fragment, UniProt P27708 1456-1846, looked up)
chain: B1 chain with R267W
B5: DHO domain of human CAD, variant R1789Q (domain or fragment, UniProt P27708 1456-1846, looked up)
chain: B1 chain with R334Q
B6: DHO domain of human CAD, variant K1482M (domain or fragment, UniProt P27708 1456-1846, looked up)
chain: B1 chain with K27M
B7: DHO domain of human CAD, variant R1810Q (domain or fragment, UniProt P27708 1456-1846, looked up)
chain: B1 chain with R355Q
B8: DHO domain of human CAD, variant R1785C (domain or fragment, UniProt P27708 1456-1846, looked up)
chain: B1 chain with R330C
B9: DHO domain of human CAD, variant R1617Q (domain or fragment, UniProt P27708 1456-1846, looked up)
chain: B1 chain with R162Q

Molecular target: the molecule itself
Experiment: SEC

Stoichiometry N, 2:
B1, B2, B3, B4, B5, B6, B7, B8, B9
